Measurements: patent US20250313626A1 (HARBOUR BIOMED SHANGHAI, published 2025)
Read-outs that look alike come from different tables or passages of the source.

T1: CD200R1a on PathHunter Jurkat CD200R1a signaling cells (Eurofins DiscoverX, 93-1136C19) (human, UniProt Q8TD46 25-348)
T1 sequence: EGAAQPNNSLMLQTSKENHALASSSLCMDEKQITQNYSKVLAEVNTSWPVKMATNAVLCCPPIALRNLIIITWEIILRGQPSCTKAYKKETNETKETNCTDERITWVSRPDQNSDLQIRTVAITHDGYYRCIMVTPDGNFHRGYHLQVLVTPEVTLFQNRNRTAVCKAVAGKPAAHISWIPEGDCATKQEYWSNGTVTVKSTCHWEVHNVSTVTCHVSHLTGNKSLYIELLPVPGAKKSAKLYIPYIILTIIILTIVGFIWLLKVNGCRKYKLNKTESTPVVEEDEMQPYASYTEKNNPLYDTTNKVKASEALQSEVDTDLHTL

T2: human CD200R1 isoform a on CHOK1 cells (CHOK1/hCD200R1a) (human, UniProt Q8TD46 25-348)
T2 construct: also called CHOK1/CD200R1a
T2 sequence: T1 sequence

B1: PR007973 (antibody, human IgG1, kappa, V domains shown)
VH: QVQLVESGGGVVQPGRSLRLSCAASGFTFSSYGFHWVRQAPGKGLEWLGIIWSDASNKYYADSVKGRFTISRDNSKNTLYLQMNSLRAEDTAVYYCARDRIVGEGFDYWGQGTLVTVSS
VL: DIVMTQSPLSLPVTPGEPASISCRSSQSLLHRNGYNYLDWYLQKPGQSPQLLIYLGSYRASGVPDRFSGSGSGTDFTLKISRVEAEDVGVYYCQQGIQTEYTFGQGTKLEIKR
notes: PTM variant of PR006839 (human IgG1)
B2: PR002906 (antibody, V domains shown)
VH: QVQLQESGPGLVKPSETLSLTCTVSGYTITSGYDWSWIRQPPGKGLEWIGYINYGGSTNYKPSLGSRVTISVDTSKNQFSLKLSSVTAADTAVYYCARYNEYKSYIYDWYFDFWGQGTLVTVSS
VL: DIQMTQSPSSLSASVGDRVTITCKASKNIRSYLAWYQQKPGKAPKLLIYSGSTLHSGVPSRFSGSGSGTDFTLTISSLQPEDFATYYCQQHHEYPLTFGQGTKVEIKR
notes: also called recombinant IgG1 antibody of huDX182
B3: PR007221 (antibody, human IgG1, kappa)
heavy: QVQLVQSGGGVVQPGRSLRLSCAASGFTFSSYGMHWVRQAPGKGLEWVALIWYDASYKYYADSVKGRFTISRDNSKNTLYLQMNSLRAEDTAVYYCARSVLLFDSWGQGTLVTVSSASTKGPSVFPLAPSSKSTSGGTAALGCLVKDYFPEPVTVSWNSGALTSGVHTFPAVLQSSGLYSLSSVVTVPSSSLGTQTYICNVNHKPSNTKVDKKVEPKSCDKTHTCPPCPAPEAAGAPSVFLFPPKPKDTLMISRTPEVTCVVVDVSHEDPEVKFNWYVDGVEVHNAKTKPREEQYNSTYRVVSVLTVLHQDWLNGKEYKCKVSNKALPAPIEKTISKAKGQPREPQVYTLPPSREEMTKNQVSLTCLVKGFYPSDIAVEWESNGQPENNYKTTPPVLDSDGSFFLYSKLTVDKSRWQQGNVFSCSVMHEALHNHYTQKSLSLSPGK
light: DIQLTQSPPSLSASVGDRVTITCRASQSISSYLNWFQQKAGKAPKLLISATSNLQSGVPSRFSGSGSGTDFTLTISSLQPEDLATYYCQQTLSSPYTFGQGTKVEIKRTVAAPSVFIFPPSDEQLKSGTASVVCLLNNFYPREAKVQWKVDNALQSGNSQESVTEQDSKDSTYSLSSTLTLSKADYEKHKVYACEVTHQGLSSPVTKSFNRGEC
notes: PTM variant of PR006895 (human IgG1)

How the values were obtained:
[1] = biological target: T1, CD200R1a on PathHunter Jurkat CD200R1a …; assay: cell-based or functional assay
[2] = biological target: T2, human CD200R1 isoform a on CHOK1 cells …; assay: flow cytometry, CHOK1/hCD200R1a cells (FITC-Mean); table beside the curves
[3] = biological target: T2, human CD200R1 isoform a on CHOK1 cells …; assay: flow cytometry, CHOK1/hCD200R1a cells (FITC-Mean); table beside the curves, head without unit, x axis Log [Ab] (nM)
[4] = biological target: T1, CD200R1a on PathHunter Jurkat CD200R1a …; assay: cell-based or functional assay; remark: listed apart in the source

Binder | IC50 of the inhibition of CD200-induced PathHunter Jurkat CD200R1a luminescence (CHOK1/hCD200 cells as CD200 source) [1] [pM] | MFI(Max) [2] | EC50 [3] [pM] | IC50 of the inhibition of CD200-induced PathHunter Jurkat CD200R1a luminescence (CHOK1/hCD200 cells as CD200 source) [4] [pM]
B1 | 706 | 19200 | 338 | –
B2 | – | 13900 | 436 | –
B3 | – | – | – | 1270
